Assay results published in US20220235118A1 (IMMUNOME, published 2022).

B1: PR200_00622 (antibody, V domains shown)
VH: QVQLVESGGGVVQPGRSLRLSCTASGFTFSTYGMHWVRQAPGKGLEWVAVISYDGSSKHYAESVKGRFTISRDNSNNTLYLQMNRLRAEDTAVYYCARDGQPPGWGNYFDYWGQGTLVTVAS
VL: SYVLTQPPSVSVAPGKTARITCGGNGIGSKSVYWYQQKPGQAPEVVVYDDSDRPSGIPERFSGSNSGNTATLTISRVEAGDEADYYCQVWDSSSDPWVFGGGTKLTVL
notes: also called IMM20253; PR200_00253
B2: PR193_00018 (antibody, V domains shown)
VH: EVQLVESGGGLVQPGGSLRLSCSASGFTFSSFWMSWVRQAPGKGLEWVATIREDGSEKYYVDSVKGRFSISRDNAKNSLYLQMNSLRAEDTAVYYCARSKWLRGSFDYWGQGTLVTVSS
VL: NFMLTQPHSVSESPGKTVTISCTRRSGSIASNYVQWYQQRPGSAPTTVIYEDNQRPSGVPDRFSGSIDSSSNSASLTISGLQTEDEADYYCQSYDSSNPPGASWVFGGGTKLTVL
notes: also called IMM20184; IMM200184
B3: PR194_00232 (antibody, V domains shown)
VH: EVQLVESGGGLVQPGGSLRLSCSASGFTVSSNYMSWVRQAPRKGLEWVSVIYAGGSTFYADSVKGRFTISRDNSKNTLLLQMNSLRAEDTAVYYCARDRGGYLDYWGQGTLVTVSS
VL: DIQMTQSPSSLSASVGDRVTITCRASQGISNYLAWYQQKPGKVPKLLIYAASTLQSGVPSRFSGSGSGTDFTLTISSLQPEDVATYYCQKYNSAPGLTFGGGTKVEIK
notes: also called IMM20190; PR194_00190

Legend:
[1] = biological target: T1, SARS-CoV-2 Spike receptor binding domain (RBD), reference (USA/WA_CDC-WA1/2020) (SARS-CoV-2, UniProt P0DTC2 319-591); experiment: SPR, antibody as ligand, RBD as analyte
[2] = biological target: T2, SARS-CoV-2 Spike S1 domain, reference (SARS-CoV-2, UniProt P0DTC2 16-685); experiment: HTRF, soluble S1 construct
T2 construct: domain: S1; also called S1 subunit

[3] = biological target: T1, SARS-CoV-2 Spike receptor binding …; experiment: HTRF, soluble RBD construct
[4] = biological target: T3, SARS-CoV-2 Spike, full-length S (FL, trimer-stabilized), reference (WA1/2020) (SARS-CoV-2, UniProt P0DTC2 14-1208); experiment: SPR, antibody as ligand, Trimer as analyte
T3 construct: also called Spike trimer; intact trimer

Binder	Kd [1] [nM]	koff [1] [s⁻¹]	kon [1] [M⁻¹ s⁻¹]	EC50 [2] [nM]	EC50 [3] [nM]	Kd [4] [nM]	koff [4] [s⁻¹]	kon [4] [M⁻¹ s⁻¹]
B1	0.157	0.000218	1.39e+06	0.0491	0.0527	1.44	0.000117	81300
B2	22	0.00131		0.0318	0.0448	7.35	0.000229	31200
B3	1.87	0.000376	202000	0.056	0.0682	6.59	0.000195	29500
